The sequences below were run on Escherichia coli TOP10 (assay: shrunken log2 fold change of peptide-encoding DNA abundance (4.5 h post-induction vs induction); higher = less antimicrobial activity (less host growth inhibition)). Details: time post-induction: 4.5 h; library: site-saturation at positions 5, 18, 19, 20.
In the case of RRIRLRPPRLPRPRPRPCGQPRP, the “shrunken log2 fold change” value is reported as -0.0417.
For RRIRERPPRLPRPRPRPCCEPRP, the “shrunken log2 fold change” value was -0.366.
In the case of RRIRYRPPRLPRPRPRPRWFPRP, the “shrunken log2 fold change” value is reported as -0.0532.
In the case of RRIRCRPPRLPRPRPRPRCIPRP, the “shrunken log2 fold change” value is reported as -0.29.
In the case of RRIRMRPPRLPRPRPRPWAQPRP, the “shrunken log2 fold change” value is reported as 0.35.
RRIRPRPPRLPRPRPRPTDFPRP was tested, and the “shrunken log2 fold change” value was -0.193.
In the case of RRIRWRPPRLPRPRPRPEYQPRP, the “shrunken log2 fold change” value is reported as 0.0269.
RRIRIRPPRLPRPRPRPEDCPRP was tested, and the “shrunken log2 fold change” value was 0.00952.
RRIRRRPPRLPRPRPRPHQAPRP was tested, and the “shrunken log2 fold change” value was -0.019.
With RRIRPRPPRLPRPRPRPKIRPRP the “shrunken log2 fold change” value was -0.137.
With RRIRDRPPRLPRPRPRPQRFPRP the “shrunken log2 fold change” value was 0.095.
RRIRFRPPRLPRPRPRPQRWPRP was tested, and the “shrunken log2 fold change” value was 0.427.
With RRIRWRPPRLPRPRPRPDPCPRP the “shrunken log2 fold change” value was -0.026.
With RRIRYRPPRLPRPRPRPLACPRP the “shrunken log2 fold change” value was -0.319.
With RRIRCRPPRLPRPRPRPHHGPRP the “shrunken log2 fold change” value was -0.261.
RRIRIRPPRLPRPRPRPQDRPRP was tested, and the “shrunken log2 fold change” value was -0.007.
With RRIRLRPPRLPRPRPRPEYTPRP the “shrunken log2 fold change” value was -0.0657.
For RRIRWRPPRLPRPRPRPVDHPRP, the “shrunken log2 fold change” value was 0.0245.
With RRIRNRPPRLPRPRPRPIEIPRP the “shrunken log2 fold change” value was 0.0194.
RRIRSRPPRLPRPRPRPGVVPRP was tested, and the “shrunken log2 fold change” value was 0.295.
With RRIRRRPPRLPRPRPRPTGKPRP the “shrunken log2 fold change” value was 0.901.
RRIRERPPRLPRPRPRPRCHPRP was tested, and the “shrunken log2 fold change” value was -0.464.
RRIRRRPPRLPRPRPRPVCVPRP was tested, and the “shrunken log2 fold change” value was 0.359.
RRIRGRPPRLPRPRPRPQTCPRP was tested, and the “shrunken log2 fold change” value was 0.403.
With RRIRRRPPRLPRPRPRPKSVPRP the “shrunken log2 fold change” value was 0.0439.
In the case of RRIRSRPPRLPRPRPRPHEGPRP, the “shrunken log2 fold change” value is reported as 0.0242.
In the case of RRIRFRPPRLPRPRPRPIKSPRP, the “shrunken log2 fold change” value is reported as -0.271.
With RRIRHRPPRLPRPRPRPSVAPRP the “shrunken log2 fold change” value was -0.156.
In the case of RRIRRRPPRLPRPRPRPVMWPRP, the “shrunken log2 fold change” value is reported as 0.0562.
In the case of RRIRCRPPRLPRPRPRPEMVPRP, the “shrunken log2 fold change” value is reported as -0.0828.
With RRIRQRPPRLPRPRPRPYFCPRP the “shrunken log2 fold change” value was -0.396.
RRIRNRPPRLPRPRPRPHLCPRP was tested, and the “shrunken log2 fold change” value was 0.183.
RRIRNRPPRLPRPRPRPLLYPRP was tested, and the “shrunken log2 fold change” value was -0.588.
For RRIRSRPPRLPRPRPRPFYYPRP, the “shrunken log2 fold change” value was -0.615.
For RRIRIRPPRLPRPRPRPRLKPRP, the “shrunken log2 fold change” value was 0.0139.
RRIRVRPPRLPRPRPRPHDEPRP was tested, and the “shrunken log2 fold change” value was 0.0655.
RRIRNRPPRLPRPRPRPKMRPRP was tested, and the “shrunken log2 fold change” value was 0.313.
For RRIRQRPPRLPRPRPRPQQDPRP, the “shrunken log2 fold change” value was 0.206.
With RRIRARPPRLPRPRPRPISQPRP the “shrunken log2 fold change” value was 0.177.
For RRIRGRPPRLPRPRPRPVIMPRP, the “shrunken log2 fold change” value was 0.258.
In the case of RRIRCRPPRLPRPRPRPLFIPRP, the “shrunken log2 fold change” value is reported as -0.51.
For RRIRNRPPRLPRPRPRPEVFPRP, the “shrunken log2 fold change” value was 0.0362.
With RRIRARPPRLPRPRPRPSLHPRP the “shrunken log2 fold change” value was 0.162.
For RRIRWRPPRLPRPRPRPHGQPRP, the “shrunken log2 fold change” value was -0.0861.
RRIRLRPPRLPRPRPRPKLHPRP was tested, and the “shrunken log2 fold change” value was 0.108.
In the case of RRIRPRPPRLPRPRPRPFKKPRP, the “shrunken log2 fold change” value is reported as -0.161.
With RRIRERPPRLPRPRPRPKTGPRP the “shrunken log2 fold change” value was -0.0863.
With RRIRYRPPRLPRPRPRPRMCPRP the “shrunken log2 fold change” value was -0.0134.
In the case of RRIRSRPPRLPRPRPRPTMQPRP, the “shrunken log2 fold change” value is reported as -0.106.
With RRIRDRPPRLPRPRPRPIVIPRP the “shrunken log2 fold change” value was -0.259.
With RRIRLRPPRLPRPRPRPMWVPRP the “shrunken log2 fold change” value was -0.314.
RRIRYRPPRLPRPRPRPSTVPRP was tested, and the “shrunken log2 fold change” value was -0.0902.
With RRIRHRPPRLPRPRPRPLICPRP the “shrunken log2 fold change” value was -0.493.
With RRIRPRPPRLPRPRPRPQGCPRP the “shrunken log2 fold change” value was -0.0849.
RRIRIRPPRLPRPRPRPWEGPRP was tested, and the “shrunken log2 fold change” value was -0.152.
For RRIRKRPPRLPRPRPRPFLVPRP, the “shrunken log2 fold change” value was 0.00497.
With RRIRDRPPRLPRPRPRPPYLPRP the “shrunken log2 fold change” value was -0.0541.
For RRIRGRPPRLPRPRPRPECTPRP, the “shrunken log2 fold change” value was 2.08.
For RRIRDRPPRLPRPRPRPAERPRP, the “shrunken log2 fold change” value was -0.0412.
In the case of RRIRSRPPRLPRPRPRPWPSPRP, the “shrunken log2 fold change” value is reported as 0.117.
For RRIRKRPPRLPRPRPRPIWWPRP, the “shrunken log2 fold change” value was 0.0844.
RRIRHRPPRLPRPRPRPTTAPRP was tested, and the “shrunken log2 fold change” value was 0.0968.
With RRIRQRPPRLPRPRPRPTYKPRP the “shrunken log2 fold change” value was -0.549.
In the case of RRIRLRPPRLPRPRPRPTTFPRP, the “shrunken log2 fold change” value is reported as 0.0632.
With RRIRSRPPRLPRPRPRPRQCPRP the “shrunken log2 fold change” value was 0.159.
For RRIRERPPRLPRPRPRPGMRPRP, the “shrunken log2 fold change” value was 0.471.
In the case of RRIRKRPPRLPRPRPRPVQQPRP, the “shrunken log2 fold change” value is reported as 0.368.
In the case of RRIRCRPPRLPRPRPRPHGAPRP, the “shrunken log2 fold change” value is reported as 0.0255.
With RRIRLRPPRLPRPRPRPKKAPRP the “shrunken log2 fold change” value was -0.0389.
With RRIRCRPPRLPRPRPRPPATPRP the “shrunken log2 fold change” value was 0.887.
RRIRGRPPRLPRPRPRPKAWPRP was tested, and the “shrunken log2 fold change” value was 0.922.
With RRIRDRPPRLPRPRPRPFPTPRP the “shrunken log2 fold change” value was 0.0231.
In the case of RRIRQRPPRLPRPRPRPADMPRP, the “shrunken log2 fold change” value is reported as -0.0927.
For RRIRDRPPRLPRPRPRPRWRPRP, the “shrunken log2 fold change” value was 0.605.
With RRIRPRPPRLPRPRPRPLWPPRP the “shrunken log2 fold change” value was 0.325.
RRIRQRPPRLPRPRPRPCAPPRP was tested, and the “shrunken log2 fold change” value was 0.226.
With RRIRRRPPRLPRPRPRPDGYPRP the “shrunken log2 fold change” value was -0.0109.
In the case of RRIRERPPRLPRPRPRPYYVPRP, the “shrunken log2 fold change” value is reported as -0.559.
In the case of RRIRSRPPRLPRPRPRPSNWPRP, the “shrunken log2 fold change” value is reported as -0.237.
RRIRVRPPRLPRPRPRPWVDPRP was tested, and the “shrunken log2 fold change” value was 0.0379.
For RRIRARPPRLPRPRPRPRSAPRP, the “shrunken log2 fold change” value was 0.681.
With RRIRCRPPRLPRPRPRPLWSPRP the “shrunken log2 fold change” value was -0.233.
RRIRSRPPRLPRPRPRPLNDPRP was tested, and the “shrunken log2 fold change” value was -0.182.
For RRIRVRPPRLPRPRPRPQNCPRP, the “shrunken log2 fold change” value was -0.205.
With RRIRARPPRLPRPRPRPQPFPRP the “shrunken log2 fold change” value was -0.0268.
In the case of RRIRDRPPRLPRPRPRPGVFPRP, the “shrunken log2 fold change” value is reported as -0.00239.
In the case of RRIRERPPRLPRPRPRPDNFPRP, the “shrunken log2 fold change” value is reported as 0.00707.
With RRIRFRPPRLPRPRPRPYYRPRP the “shrunken log2 fold change” value was 0.0478.
For RRIRPRPPRLPRPRPRPLPFPRP, the “shrunken log2 fold change” value was -0.75.
RRIRRRPPRLPRPRPRPNKSPRP was tested, and the “shrunken log2 fold change” value was -0.0615.
For RRIRPRPPRLPRPRPRPYRFPRP, the “shrunken log2 fold change” value was -0.261.
RRIRQRPPRLPRPRPRPPFNPRP was tested, and the “shrunken log2 fold change” value was -0.159.
RRIRSRPPRLPRPRPRPHSLPRP was tested, and the “shrunken log2 fold change” value was 0.0616.
RRIRARPPRLPRPRPRPHFTPRP was tested, and the “shrunken log2 fold change” value was 0.345.
RRIRCRPPRLPRPRPRPEREPRP was tested, and the “shrunken log2 fold change” value was 0.108.
RRIRTRPPRLPRPRPRPCQKPRP was tested, and the “shrunken log2 fold change” value was 0.0124.
For RRIRWRPPRLPRPRPRPGFVPRP, the “shrunken log2 fold change” value was 0.291.
For RRIRPRPPRLPRPRPRPMWGPRP, the “shrunken log2 fold change” value was 0.0327.
For RRIRIRPPRLPRPRPRPGRAPRP, the “shrunken log2 fold change” value was 0.431.
With RRIRYRPPRLPRPRPRPPWYPRP the “shrunken log2 fold change” value was -0.786.
With RRIRARPPRLPRPRPRPRCTPRP the “shrunken log2 fold change” value was 0.392.
RRIRHRPPRLPRPRPRPARMPRP was tested, and the “shrunken log2 fold change” value was -0.0768.
With RRIRNRPPRLPRPRPRPMLKPRP the “shrunken log2 fold change” value was -0.0393.
For RRIRIRPPRLPRPRPRPVNMPRP, the “shrunken log2 fold change” value was -0.103.
RRIRNRPPRLPRPRPRPSLFPRP was tested, and the “shrunken log2 fold change” value was -0.453.
With RRIRSRPPRLPRPRPRPYFQPRP the “shrunken log2 fold change” value was -0.951.
RRIRDRPPRLPRPRPRPPIAPRP was tested, and the “shrunken log2 fold change” value was -0.0649.
With RRIRNRPPRLPRPRPRPYRYPRP the “shrunken log2 fold change” value was 0.0342.
With RRIRFRPPRLPRPRPRPQMGPRP the “shrunken log2 fold change” value was -0.209.
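Note: peptides expressed intracellularly from a pBAD plasmid library in pooled LB shake-flask culture, induced with 0.3% L-arabinose, DNA abundance read by NGS, three biological replicates, DESeq2 with apeglm shrinkage.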
